# Laboratory results taken from the supplement of paper PMC10567573.
# B1: MFF (parent)
# chain: YTEGISQRMRVPEKLKVAPPNADL
# Variants of: B1
# Experiment: protein stability index of a GFP-peptide fusion (GPS, HEK-293T) (PSI 1-6); higher = more stable
# Conditions: c terminus: a fixed tail appended
# 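Note: lentivirally expressed fusions sorted by FACS into six bins by GFP to DsRed ratio, PSI derived from sequencing read proportions per bin multiplied by bin number.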
row,Variant,protein stability index
1,YQEGISQRMRVPEKLKVAPPNADL,3.03
2,YEEGISQRMRVPEKLKVAPPNADL,4.85
3,YKEGISQRMRVPEKLKVAPPNADL,3.92
4,YCEGISQRMRVPEKLKVAPPNADL,2.65
5,YTEGISQRMRVPEKSKVAPPNADL,3.15
6,YTEGISQRMRVPEKGKVAPPNADL,3.38
7,YTEGISQRMRVPEKMKVAPPNADL,2.59
8,YTEGISQRMRVPEKVKVAPPNADL,3.09
9,YTEGISQRMRVPEKNKVAPPNADL,2.99
10,YTEGISQRMRVPEKTKVAPPNADL,2.71
11,YTEGISQRMRVPEKYKVAPPNADL,3.12
12,YTEGISQRMRVPEKIKVAPPNADL,2.69
13,YTEGISQRMRVPEKWKVAPPNADL,2.51
14,YTEGISQRMRVPEKCKVAPPNADL,2.44
15,YTEGISQTMRVPEKLKVAPPNADL,2.76
16,YTEGISQVMRVPEKLKVAPPNADL,2.6
17,YTEGISQKMRVPEKLKVAPPNADL,2.52
18,YTEGISQNMRVPEKLKVAPPNADL,3.18
19,YTEGISQSMRVPEKLKVAPPNADL,2.43
20,YTEGISQEMRVPEKLKVAPPNADL,3.6
21,YTEGISQCMRVPEKLKVAPPNADL,2.47
22,YTEGISQMMRVPEKLKVAPPNADL,2.16
23,YTEGISQRMRVPEKLKVNPPNADL,2.78
24,YTEGISQRMRVPEKLKVVPPNADL,2.72

row,Variant,protein stability index
1,YTEGISQRMRVPEKLKVHPPNADL,3.88
2,YTEGISQRMRVPEKLKVTPPNADL,3.03
3,YTEGISQRMRVPEKLKVLPPNADL,2.88
4,YTEGISQRMRVPEKLKVMPPNADL,2.89
5,YTEGISQRMRVPEKLKVQPPNADL,3.24
6,YTEGISQRMRVPEKLKVDPPNADL,3.19
7,YTEGISQRMRVPEKLKVIPPNADL,3.15
8,YTEGIHQRMRVPEKLKVAPPNADL,2.63
9,YTEGIDQRMRVPEKLKVAPPNADL,3.51
10,YTEGIWQRMRVPEKLKVAPPNADL,2.52
11,YTEGIAQRMRVPEKLKVAPPNADL,2.76
12,YTEGIIQRMRVPEKLKVAPPNADL,2.51
13,YTEGISQRMRVPEKLKVAPPNADV,2.61
14,YTEGISQRMRVPEKLKVAPPNADM,2.91
15,YTEGISQRMRVPEKLKVAPPNADC,2.87
16,YTEGISQRMRVPEKLKVAPPNADK,3
17,YTEGISQRMRVPEKLKVAPPNADT,2.95
18,YTEGISQRMRVPEKLKVAPPNADF,2.49
19,YTLGISQRMRVPEKLKVAPPNADL,2.58
20,YTYGISQRMRVPEKLKVAPPNADL,2.69
21,YTHGISQRMRVPEKLKVAPPNADL,2.92
22,YTTGISQRMRVPEKLKVAPPNADL,2.56
23,YTDGISQRMRVPEKLKVAPPNADL,3.24
